# Data published in paper PMC5454392, “Selective BET bromodomain inhibition as an antifungal therapeutic strategy” (Nature Communications, 2017).
# Where two headings read alike, the source gives them in different places.
# Key:
# CaBdf1 BD1 [1] = biological target: T1, CaBdf1 BD1 (Candida albicans, UniProt Q5A4W8); experiment: HTRF assay, inhibition of BD binding to H4ac4 peptide; design: species or system C. albicans; settings: HTRF, H4ac4 peptide, BETi, maximal concentration 10 μM
# T1 construct: made in house; host or cells: E. coli BL21(DE3)
# CaBdf1 BD2 [2] = biological target: T2, CaBdf1 BD2 (Candida albicans, UniProt Q5A4W8); experiment: as above; design: made in house; host or cells: E. coli BL21(DE3)
# CaBdf1 BD1 [3] = biological target: T1, CaBdf1 BD1; experiment: Isothermal titration calorimetry (ITC); format: binding; settings: ITC
# Experimental: (§1) Proteins used for crystallization and for ITC. […] Cells were resuspended in buffer A (50 mM Tris-HCl pH 7.5, 300 mM NaCl, 10% glycerol, 25 mM imidazole, 5 mM β-mercaptoethanol and protease inhibitors) and lysed by sonication. The cleared lysate was incubated with Ni-NTA resin (Qiagen) and washed with buffer A containing 0.5 M NaCl. Proteins were eluted with 250 mM imidazole, dialysed overnight in the presence of His-tagged TEV protease against buffer A containing no imidazole and incubated with Ni-NTA resin to remove His-tagged species. Proteins were further purified on a Superdex 75 10/300 (GE Healthcare) column in 50 mM Hepes pH 7.5, 150 mM NaCl, 0.5 mM dithiothreitol (DTT). Proteins were concentrated to >20 mg ml^−1 on a Centricon device (Millipore) and used for ITC, TSA and crystallization experiments. […] Expression and purification were performed as above, except that buffer A was replaced by buffer B (50 mM Hepes pH 7.5, 500 mM NaCl, 5% glycerol, 5 mM imidazole and protease inhibitors) and gel filtration was performed in 10 mM Hepes pH 7.5, 500 mM NaCl and 5% glycerol.
# (§2) Calorimetric experiments were performed on a NanoITC calorimeter (TA Instruments) at 25 °C while stirring at 250 r.p.m. All proteins were buffer exchanged by gel filtration into 50 mM Hepes pH 7.5, 150 mM NaCl, 0.5 mM DTT, except for SMARCA2 and SMARCA4A BDs, which were exchanged into 10 mM Hepes pH 7.5, 500 mM NaCl and 5% glycerol. […] Titrations consisted of an initial injection of 1.5 μl followed by 19 identical injections of 2.5 μl made at time intervals of 5 min. ITC data were corrected for the heat of dilution of injectant into buffer and analysed with software provided by the manufacturer using a single binding site model. The first data point was excluded from the analysis. Thermodynamic parameters determined from the ITC data are summarized in Supplementary Table 1.
# CaBdf1 BD2 [4] = biological target: T2, CaBdf1 BD2; experiment: Isothermal titration calorimetry (ITC); format: binding; design: His tag with TEV site (N, cleaved yes); made in house; host or cells: E. coli BL21(DE3); settings: ITC
# Experimental: as §1, §2
# human Brd4 BD1 = human Brd4 BD1 (Homo sapiens, UniProt O60885); experiment: Isothermal titration calorimetry (ITC); format: binding; design: human Brd4 BD1 (residues 22–204); His tag with TEV site (N, cleaved yes); made in house; host or cells: E. coli BL21(DE3); settings: ITC, 25 °C
# Experimental: as §1, §2
# CaBdf1 BD2 Y425F = biological target: T3, CaBdf1 BD2 Y425F (Candida albicans, UniProt Q5A4W8, Y425F); experiment: Histone peptide microarray binding, YF mutant;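 for CaBdf1 BD2 Normalized (0 to 100%) YF mutant: normalized to spotted c-myc peptide positive control signal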; design: species or system C. albicans; settings: YF mutant BD2; for CaBdf1 BD2 Normalized (0 to 100%) YF mutant: normalized array signal; for CaBdf1 BD2 Raw data YF mutant: peptide array signal
# T3 construct: made in house; host or cells: E. coli BL21(DE3), inferred from the wild-type GST construct
# Experimental: (§3) In short, arrays were blocked and incubated with 1 μM of purified CaBdf1 BD1 or BD2. Arrays were incubated with recombinant BDs for 2 h at 4 °C in binding buffer (Tris-HCl 50 mM pH 7.4, NP-40 0.1%, NaCl 150 mM, glycerol 10%). […] Assays were performed in duplicate. Images were acquired on a Bio-Rad ChemiDoc XRS Imaging machine and data were quantified using the array analyser software provided by Active Motif.
# CaBdf1 BD1 Y248F = biological target: T4, CaBdf1 BD1 Y248F (Candida albicans, UniProt Q5A4W8, Y248F); experiment: Histone peptide microarray binding, YF mutant;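 for CaBdf1 BD1 Normalized (0 to 100%) YF mutant: normalized to spotted c-myc peptide positive control signal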; design: species or system C. albicans; settings: YF mutant BD1; for CaBdf1 BD1 Normalized (0 to 100%) YF mutant: normalized array signal; for CaBdf1 BD1 Raw data YF mutant: peptide array signal
# T4 construct: made in house; host or cells: E. coli BL21(DE3), inferred from the wild-type GST construct
# Experimental: as §3
# CaBdf1 BD1 [5] = biological target: T5, CaBdf1 BD1 (Candida albicans, UniProt Q5A4W8); format: binding; settings: wild-type BD1; for CaBdf1 BD1 Normalized (0 to 100%) WT: normalized array signal; for CaBdf1 BD1 Raw data WT: peptide array signal;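 for CaBdf1 BD1 Normalized (0 to 100%) WT: normalized to spotted c-myc peptide positive control signal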
# T5 construct: made in house; host or cells: E. coli BL21(DE3)
# T5 sequence (Q5A4W8 whole entry, looked up): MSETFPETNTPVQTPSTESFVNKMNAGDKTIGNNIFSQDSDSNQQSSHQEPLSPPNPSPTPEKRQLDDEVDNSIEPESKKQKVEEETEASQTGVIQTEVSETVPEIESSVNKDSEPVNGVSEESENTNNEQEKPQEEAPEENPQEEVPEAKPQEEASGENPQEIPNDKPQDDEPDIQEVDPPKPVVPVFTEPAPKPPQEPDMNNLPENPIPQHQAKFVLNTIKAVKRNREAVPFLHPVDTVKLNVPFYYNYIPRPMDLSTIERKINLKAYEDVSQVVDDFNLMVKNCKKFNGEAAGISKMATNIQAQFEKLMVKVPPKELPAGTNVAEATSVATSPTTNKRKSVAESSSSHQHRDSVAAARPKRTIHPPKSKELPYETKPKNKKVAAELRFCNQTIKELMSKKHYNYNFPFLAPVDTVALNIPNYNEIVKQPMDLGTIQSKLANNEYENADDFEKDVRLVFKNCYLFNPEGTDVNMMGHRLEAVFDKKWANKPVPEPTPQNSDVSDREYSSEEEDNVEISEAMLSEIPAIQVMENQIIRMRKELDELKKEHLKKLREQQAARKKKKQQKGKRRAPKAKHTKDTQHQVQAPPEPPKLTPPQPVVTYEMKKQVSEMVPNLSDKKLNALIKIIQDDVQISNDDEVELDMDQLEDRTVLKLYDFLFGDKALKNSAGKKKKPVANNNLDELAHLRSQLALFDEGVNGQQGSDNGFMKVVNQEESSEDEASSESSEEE
# Experimental: (§4) In short, arrays were blocked and incubated with 1 μM of purified CaBdf1 BD1 or BD2. Arrays were incubated with recombinant BDs for 2 h at 4 °C in binding buffer (Tris-HCl 50 mM pH 7.4, NP-40 0.1%, NaCl 150 mM, glycerol 10%). […] Assays were performed in duplicate.
# CaBdf1 BD2 [6] = biological target: T6, CaBdf1 BD2 (Candida albicans, UniProt Q5A4W8); format: binding; settings: wild-type BD2; for CaBdf1 BD2 Normalized (0 to 100%) WT: normalized array signal; for CaBdf1 BD2 Raw data WT: peptide array signal;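 for CaBdf1 BD2 Normalized (0 to 100%) WT: normalized to spotted c-myc peptide positive control signal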
# T6 construct: made in house; host or cells: E. coli BL21(DE3)
# T6 sequence (Q5A4W8 whole entry, looked up): T5 sequence (Q5A4W8 whole entry, looked up)
# Experimental: as §4
# T4 sequence (Q5A4W8 193-327 Y248F): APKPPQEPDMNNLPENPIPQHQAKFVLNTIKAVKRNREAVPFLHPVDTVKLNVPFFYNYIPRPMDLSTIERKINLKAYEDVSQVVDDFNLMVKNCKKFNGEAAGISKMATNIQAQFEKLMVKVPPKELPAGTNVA
# T3 sequence (Q5A4W8 361-501 Y425F): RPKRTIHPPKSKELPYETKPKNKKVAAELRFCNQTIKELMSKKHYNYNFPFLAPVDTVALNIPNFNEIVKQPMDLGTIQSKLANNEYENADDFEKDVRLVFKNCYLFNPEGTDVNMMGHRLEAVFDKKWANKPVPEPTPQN
Molecule,IC50 (CaBdf1 BD1 [1]; read-out: IC50 values) [µM],IC50 (CaBdf1 BD2 [2]) [µM],CaBdf1 BD2 Normalized (0 to 100%) YF mutant (CaBdf1 BD2 Y425F) [%],CaBdf1 BD2 Raw data YF mutant (CaBdf1 BD2 Y425F; first of two raw-data columns),CaBdf1 BD2 Raw data YF mutant (CaBdf1 BD2 Y425F),CaBdf1 BD1 Normalized (0 to 100%) YF mutant (CaBdf1 BD1 Y248F) [%],CaBdf1 BD1 Raw data YF mutant (CaBdf1 BD1 Y248F),CaBdf1 BD1 Normalized (0 to 100%) WT (CaBdf1 BD1 [5]) [%],CaBdf1 BD1 Raw data WT (CaBdf1 BD1 [5]; first of two raw-data columns),CaBdf1 BD1 Raw data WT (CaBdf1 BD1 [5]),CaBdf1 BD2 Normalized (0 to 100%) WT (CaBdf1 BD2 [6]) [%],CaBdf1 BD2 Raw data WT (CaBdf1 BD2 [6]; first of two raw-data columns),CaBdf1 BD2 Raw data WT (CaBdf1 BD2 [6]),CaBdf1 BD1 Raw data YF mutant (CaBdf1 BD1 Y248F; first of two raw-data columns),other results
"CCOC(=O)Nc1cc(-c2ccc(C)c(NS(C)(=O)=O)c2)nn2c(C)nnc12 [Bromosporine, reference compound]",> 10,0.313 ± 0.002,–,–,–,–,–,–,–,–,–,–,–,–,–
"COc1cc2c(cc1-c1c(C)noc1C)ncc1[nH]c(=O)n([C@H](C)c3ccccn3)c12 [IBET-151, reference compound]",0.303 ± 0.12,1.47 ± 0.09,–,–,–,–,–,–,–,–,–,–,–,–,–
"Cc1sc2c(c1C)C(c1ccc(Cl)cc1)=N[C@@H](CC(=O)OC(C)(C)C)c1nnc(C)n1-2 [JQ1, reference compound]",–,–,–,–,–,–,–,–,–,–,–,–,–,–,"IC50 (CaBdf1 BD1 [1]; IC50 values): > 10 µM; IC50 (CaBdf1 BD2 [2]; HTRF, H4ac4 peptide, BETi, maximal concentration 10 μM, read-out: IC50 values): ~10 µM; binding to CaBdf1 BD1 (in words) (CaBdf1 BD1 [3]): no binding was detected; binding to CaBdf1 BD2 (in words) (CaBdf1 BD2 [4]): no binding was detected; N (stoichiometry) (human Brd4 BD1): 1.00 ± 0.03; TΔS (human Brd4 BD1): -2.935 kcal/mol; ΔH (human Brd4 BD1): -12.8 ± 0.12 kcal/mol"
"COc1ccccc1S(=O)(=O)Nc1ccc2c(c1)CN(C)C(=O)N2 [PFI-1, reference compound]",> 10,~10,–,–,–,–,–,–,–,–,–,–,–,–,–
A Rme2s T Kme2 Q T A R Kme1 S T G G K A P R K Q,–,–,0.244,0.002427,0.003398,0.762,0.005144,0.544,0.006414,0.005345,0.444,0.01441,0.005491,–,–
A Rme2s T Kme2 Q T A R Kme3 S T G G K A P R K Q,–,–,0.44,0.004369,0.002427,0.312,0.002058,0.145,0.004276,0.001603,0.444,0.01716,0.002745,0.003086,–
A Rme2s T Kme2 Q T A Rme2s K S T G G K A P R K Q,–,–,0.244,0.002427,0.004854,0.624,0.003086,0.181,0.002672,0.003741,0.629,0.00755,0.01579,0.006173,–
A Rme2s T Kme3 Q T A R Kme1 S T G G K A P R K Q,–,–,0.195,–,–,0.831,0.002743,0.471,0.00481,0.005879,0.444,0.01441,0.005491,0.00823,–
A Rme2s T Kme3 Q T A R Kme3 S T G G K A P R K Q,–,–,0.537,0.00534,0.002427,0.797,0.003772,0.254,0.003207,0.004276,0.481,0.01784,0.002745,0.007888,–
A Rme2s T Kme3 Q T A Rme2s K S T G G K A P R K Q,–,–,0.244,0.002427,0.003398,0.346,0.004115,0.29,0.003207,0.00481,0.444,0.008236,0.01167,0.003429,–
